Measured values as given in US7132258B1, “Nucleic acid encoding vitamin D receptor related polypeptide” (University of Massachusetts, priority 1998, dated 2006).

How the values were obtained:
PPAR (LBD of mPPARα) = biological target: T1, PPAR (LBD of mPPARα) (Mus musculus, UniProt P23204); assay: Yeast two-hybrid interaction with PPAR; format: binding; conditions: β-galactosidase ONPG assay, 1 μM ligand or vehicle
T1 construct: PPAR (LBD of mPPARα); expressed in transfected cells; host or cells: Saccharomyces cerevisiae Y190
T1 sequence (P23204 239-466 limits assumed): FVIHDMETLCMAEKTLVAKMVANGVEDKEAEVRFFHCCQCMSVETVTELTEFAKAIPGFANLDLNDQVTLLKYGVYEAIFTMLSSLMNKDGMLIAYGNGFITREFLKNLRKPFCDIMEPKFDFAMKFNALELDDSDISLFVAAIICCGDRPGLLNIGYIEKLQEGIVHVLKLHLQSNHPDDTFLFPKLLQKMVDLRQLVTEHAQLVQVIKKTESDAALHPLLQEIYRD
T1 sequence (Q9Y6Q9 401-1204 E704Q partner limits assumed): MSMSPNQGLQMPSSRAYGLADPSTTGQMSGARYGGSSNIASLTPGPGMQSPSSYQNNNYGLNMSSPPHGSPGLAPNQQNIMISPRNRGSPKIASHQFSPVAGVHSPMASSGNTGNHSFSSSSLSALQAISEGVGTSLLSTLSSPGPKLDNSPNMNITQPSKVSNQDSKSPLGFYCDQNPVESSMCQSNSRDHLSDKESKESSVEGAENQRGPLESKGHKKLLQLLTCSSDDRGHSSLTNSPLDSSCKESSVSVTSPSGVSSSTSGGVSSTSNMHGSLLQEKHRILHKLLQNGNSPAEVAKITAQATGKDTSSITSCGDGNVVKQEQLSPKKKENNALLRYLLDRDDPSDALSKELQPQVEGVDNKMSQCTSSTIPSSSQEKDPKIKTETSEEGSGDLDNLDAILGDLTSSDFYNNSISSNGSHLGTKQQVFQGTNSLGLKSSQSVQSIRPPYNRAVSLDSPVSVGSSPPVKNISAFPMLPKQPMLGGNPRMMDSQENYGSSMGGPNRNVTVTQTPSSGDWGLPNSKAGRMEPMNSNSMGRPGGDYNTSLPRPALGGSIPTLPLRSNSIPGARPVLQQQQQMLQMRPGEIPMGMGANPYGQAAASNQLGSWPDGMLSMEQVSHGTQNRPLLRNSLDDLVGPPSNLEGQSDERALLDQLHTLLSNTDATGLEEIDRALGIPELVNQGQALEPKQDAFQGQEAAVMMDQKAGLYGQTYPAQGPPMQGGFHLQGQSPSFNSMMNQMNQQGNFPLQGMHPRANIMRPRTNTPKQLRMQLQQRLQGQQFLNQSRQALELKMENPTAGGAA
Procedure: The protein—protein interactions between RAC3 and several steroid/nuclear receptors were analyzed by the yeast two-hybrid system. The original two-hybrid clone, RAC3.1 in pGAD10 vector, was retransformed together with yeast expression vectors for Gal4 DBD fusion of selected hormone receptor genes into Y190 cells. The receptors used include RAR (full-length hRARα), RXR (full-length hRXRα), VDR (LBD of human Vitamin D receptor), PPAR (LBD of mPPARα), TR (LBD) of hTRβ), COUP (LBD of COUP-TFI). Three independent colonies from each transformation were selected and analyzed for expression of […] activities by liquid ONPG assay (FIG. 6) after treatment with 1 μM of corresponding ligands (closed bars), or with equal concentration of vehicle alone (open bars). […] The ligands used in these experiments were atRA, VitD3 (1,25-dihydroxyvitamin D3), and Wy (Wy 14,642). […] In the absence of ligand, RAC3 can interact with RAR and PPAR.

[1] = biological target: T2, Gal4 DBD fusion of the LBD of hRARα (Homo sapiens, UniProt P10276); assay: Coactivation of Gal-RAR on Gal4-tk-Luc reporter in A549 cells; format: cell-based; conditions: overexpression of RAC3, 100 nM atRA, 24 hours
T2 construct: Gal4 DBD fusion of the LBD of hRARα (Gal-RAR); expressed in transfected cells; host or cells: A549 human lung carcinoma cells
Procedure: Monkey kidney-derived CV-1 cells and human lung carcinoma A549 cells were grown in phenol-free DMEM medium supplemented with 10% charcoal-stripped fetal bovine serum (Gibco). One day before transfection, cells were seeded in 12-well plates at a density of 50,000 cells per well. A mixture of DNAs was prepared that contained 0.5 μg of expression vector, 0.5 μg of pCMX-βGal used as internal control for transfection efficiency, 1 μg of luciferase reporter, and 1.5 μg of carrier DNA (PGEM) in a final volume of 30 μl. The DNA solution was mixed dropwise with one volume of 0.5 M CaCl2 and two volumes of 2×BBS (50 mM N,N-bis(2-hydroxyethyl)-2-aminoethanesulfonic acid (BES; Calbiochem), 280 mM NaCl, 1.5 mM Na2HPO4, pH 6.95). DNA precipitates were allowed to form at room temperature for 10 minutes and applied evenly to the cell cultures. Cells were allowed to transfect for 12 hours, then the precipitates were removed by washing transfected cells twice with phosphate buffered saline (PBS). […]
Luciferase and β-galactosidase assays were used to analyze the cultures. […] The luciferase activities were determined with MLX microtiter plate luminometer (Dynex) using 100 μl of assay solution (0.1 M KPO4, 5 mM ATP, 10 mM MgCl2) and 100 μl of luciferin solution (0.01 M D-luciferin in 0.1 M KPO4, pH 7.8). […]

T2 sequence (P10276 183-417 limits assumed): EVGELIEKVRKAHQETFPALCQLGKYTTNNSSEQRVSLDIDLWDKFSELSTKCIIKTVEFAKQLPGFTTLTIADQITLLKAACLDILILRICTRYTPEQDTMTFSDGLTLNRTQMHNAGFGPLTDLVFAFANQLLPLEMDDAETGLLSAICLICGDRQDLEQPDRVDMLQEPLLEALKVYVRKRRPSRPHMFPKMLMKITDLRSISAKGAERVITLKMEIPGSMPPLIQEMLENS
T2 sequence (Q9Y6Q9 with tags, fused parts or gaps isoform Q9Y6Q9-5 D131E/G132A/T187P/E704Q/DEL1268-1272 partner): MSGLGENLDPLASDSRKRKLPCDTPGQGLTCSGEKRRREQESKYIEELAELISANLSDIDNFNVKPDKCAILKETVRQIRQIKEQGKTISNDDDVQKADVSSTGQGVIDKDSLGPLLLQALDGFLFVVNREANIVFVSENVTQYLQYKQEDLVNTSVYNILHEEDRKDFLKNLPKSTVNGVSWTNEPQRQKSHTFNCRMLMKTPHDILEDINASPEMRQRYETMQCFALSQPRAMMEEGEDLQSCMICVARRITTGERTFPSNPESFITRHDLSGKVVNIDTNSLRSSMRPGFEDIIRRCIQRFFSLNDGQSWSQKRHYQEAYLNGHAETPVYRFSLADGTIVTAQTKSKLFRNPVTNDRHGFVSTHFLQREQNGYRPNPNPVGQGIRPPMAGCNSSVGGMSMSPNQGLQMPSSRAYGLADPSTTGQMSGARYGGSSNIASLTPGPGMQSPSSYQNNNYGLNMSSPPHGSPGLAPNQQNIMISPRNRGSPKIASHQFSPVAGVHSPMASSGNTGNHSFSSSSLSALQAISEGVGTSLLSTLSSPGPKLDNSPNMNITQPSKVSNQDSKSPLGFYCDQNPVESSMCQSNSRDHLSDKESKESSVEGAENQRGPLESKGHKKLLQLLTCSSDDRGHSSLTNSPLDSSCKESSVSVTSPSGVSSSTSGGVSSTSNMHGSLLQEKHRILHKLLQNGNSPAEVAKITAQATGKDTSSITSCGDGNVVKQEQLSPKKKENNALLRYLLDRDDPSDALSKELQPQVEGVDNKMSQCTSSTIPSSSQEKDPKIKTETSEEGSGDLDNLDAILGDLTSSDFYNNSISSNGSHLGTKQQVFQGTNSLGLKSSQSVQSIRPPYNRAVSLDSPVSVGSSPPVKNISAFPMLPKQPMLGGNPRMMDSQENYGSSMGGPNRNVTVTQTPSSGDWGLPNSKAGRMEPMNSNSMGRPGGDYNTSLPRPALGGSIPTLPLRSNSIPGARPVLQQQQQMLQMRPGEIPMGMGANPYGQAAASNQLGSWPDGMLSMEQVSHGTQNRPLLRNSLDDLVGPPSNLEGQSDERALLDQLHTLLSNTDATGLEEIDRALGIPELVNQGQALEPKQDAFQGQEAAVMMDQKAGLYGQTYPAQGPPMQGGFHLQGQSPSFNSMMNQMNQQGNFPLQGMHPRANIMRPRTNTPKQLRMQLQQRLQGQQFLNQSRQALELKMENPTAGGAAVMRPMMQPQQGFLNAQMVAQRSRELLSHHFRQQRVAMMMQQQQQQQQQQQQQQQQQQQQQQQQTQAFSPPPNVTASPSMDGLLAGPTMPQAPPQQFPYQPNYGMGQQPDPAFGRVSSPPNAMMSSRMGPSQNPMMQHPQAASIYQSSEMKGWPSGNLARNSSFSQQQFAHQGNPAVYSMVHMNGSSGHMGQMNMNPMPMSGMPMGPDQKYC

- interaction with PPAR (PPAR (LBD of mPPARα)): ligand-dependent manner
- enhancement of ligand-dependent transcriptional activation by Gal4 DBD fusion of RAR [1]: about two-fold
Substance: RAC3: transcriptional coactivator of steroid/nuclear receptors, protein of about 1417 amino acids (SEQ ID NO:2); RAC3.1 is the two-hybrid clone, amino acids 401–1204
